Experimental data: article PMC9482650, “Quantitative fragmentomics allow affinity mapping of interactomes” (Nature Communications, 2022)

How the values were obtained:
Assay in all cases: holdup assay
Parameters in all cases: key: below the threshold = too weak to quantify, mostly under pKd 3.1 to 4
Settings in all cases: plain residues with an end cap or a label only (N-terminal biotin on a linker: ttds)
[1] = molecular target: T1, PARD6G, Q9BYG4
T1 sequence (Q9BYG4 153-261, limits assumed, looked up): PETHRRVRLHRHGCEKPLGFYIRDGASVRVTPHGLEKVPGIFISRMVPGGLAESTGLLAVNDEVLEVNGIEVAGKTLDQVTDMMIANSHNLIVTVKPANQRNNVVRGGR

[2] = molecular target: T2, PDZD7_2, Q9H5P4
T2 sequence (Q9H5P4 205-303, limits assumed, looked up): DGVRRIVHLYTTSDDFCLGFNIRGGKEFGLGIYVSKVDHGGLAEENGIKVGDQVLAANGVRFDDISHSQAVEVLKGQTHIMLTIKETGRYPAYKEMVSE

[3] = molecular target: DLG2_1, Q15700
[4] = molecular target: T3, PDZD7_1, Q9H5P4
T3 sequence (Q9H5P4 81-178, limits assumed, looked up): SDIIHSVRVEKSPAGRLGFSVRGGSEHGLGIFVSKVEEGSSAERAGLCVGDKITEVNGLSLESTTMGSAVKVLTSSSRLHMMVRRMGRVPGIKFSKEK

[5] = molecular target: PDZRN4_2, Q6ZMN7
[6] = molecular target: T4, PDZD2_5, O15018
T4 sequence (O15018 2617-2716, limits assumed, looked up): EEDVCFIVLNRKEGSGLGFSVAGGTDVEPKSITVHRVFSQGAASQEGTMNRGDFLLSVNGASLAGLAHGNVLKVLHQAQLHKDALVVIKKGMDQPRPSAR

[7] = molecular target: T5, PREX2_2, Q70Z35
T5 sequence (Q70Z35 672-764, limits assumed, looked up): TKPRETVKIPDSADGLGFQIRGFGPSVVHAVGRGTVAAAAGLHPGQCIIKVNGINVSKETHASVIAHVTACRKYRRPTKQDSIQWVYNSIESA

[8] = molecular target: T6, TJP3_2, O95049
T6 sequence (O95049 190-282, limits assumed, looked up): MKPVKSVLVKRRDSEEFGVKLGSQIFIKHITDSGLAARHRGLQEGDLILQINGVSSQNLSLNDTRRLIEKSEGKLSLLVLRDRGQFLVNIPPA

[9] = molecular target: Inadl_7, Q8NI35
[10] = molecular target: MAGI3_6, Q5TCQ9
[11] = molecular target: PARD3B_2, Q8TEW8
[12] = molecular target: T7, SIPA1L3, O60292
T7 sequence (O60292 961-1052, limits assumed, looked up): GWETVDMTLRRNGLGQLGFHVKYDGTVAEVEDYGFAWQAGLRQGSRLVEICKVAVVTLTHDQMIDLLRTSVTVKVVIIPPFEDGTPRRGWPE

[13] = molecular target: CARD14, Q9BXL6
[14] = molecular target: MAGI1_5, Q96QZ7
[15] = molecular target: T8, APBA3_2, O96018
T8 sequence (O96018 480-570, limits assumed, looked up): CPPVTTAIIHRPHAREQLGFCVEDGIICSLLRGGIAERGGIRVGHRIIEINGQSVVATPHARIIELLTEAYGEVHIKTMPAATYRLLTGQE

[16] = molecular target: MAGI3_3, Q5TCQ9
[17] = molecular target: SCRIB_4, Q14160
[18] = molecular target: PTPN13_2, Q12923
[19] = molecular target: AHNAK2, Q8IVF2
[20] = molecular target: PARD3_1, Q8TEW0
[21] = molecular target: T9, NHERF3_2, Q5T2W1
T9 sequence (Q5T2W1 129-225, limits assumed, looked up): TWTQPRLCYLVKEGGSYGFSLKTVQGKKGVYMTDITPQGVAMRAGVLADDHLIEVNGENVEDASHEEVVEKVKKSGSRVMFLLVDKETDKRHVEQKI

[22] = molecular target: LMO7, Q8WWI1
[23] = molecular target: T10, PDZD2_1, O15018
T10 sequence (O15018 80-192, limits assumed, looked up): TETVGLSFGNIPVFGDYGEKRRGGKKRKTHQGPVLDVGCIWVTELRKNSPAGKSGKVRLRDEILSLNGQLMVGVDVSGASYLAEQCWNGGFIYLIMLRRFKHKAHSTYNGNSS

[24] = molecular target: NHERF2_1, Q15599
[25] = molecular target: T11, SHROOM2, Q13796
T11 sequence (Q13796 21-118, limits assumed, looked up): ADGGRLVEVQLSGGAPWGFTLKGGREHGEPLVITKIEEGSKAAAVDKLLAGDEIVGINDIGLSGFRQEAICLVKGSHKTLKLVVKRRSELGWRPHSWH

[26] = molecular target: T12, PDZD11, Q5EBL8
T12 sequence (Q5EBL8 42-139, limits assumed, looked up): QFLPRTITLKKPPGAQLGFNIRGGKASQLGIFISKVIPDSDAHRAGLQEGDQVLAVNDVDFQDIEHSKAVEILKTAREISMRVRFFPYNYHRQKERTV

Sequence of LMO7, Q8WWI1 (Q8WWI1 1037-1138): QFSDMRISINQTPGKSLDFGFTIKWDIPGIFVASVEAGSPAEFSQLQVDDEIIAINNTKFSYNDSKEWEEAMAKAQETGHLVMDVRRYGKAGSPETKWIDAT
Sequence of PARD3_1, Q8TEW0 (Q8TEW0 264-372): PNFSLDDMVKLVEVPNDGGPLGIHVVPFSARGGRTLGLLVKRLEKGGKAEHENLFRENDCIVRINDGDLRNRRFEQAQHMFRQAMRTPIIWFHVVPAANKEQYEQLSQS
Sequence of AHNAK2, Q8IVF2 (Q8IVF2 108-193): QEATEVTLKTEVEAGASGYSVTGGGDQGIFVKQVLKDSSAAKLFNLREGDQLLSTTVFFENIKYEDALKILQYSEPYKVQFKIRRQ
Sequence of PDZRN4_2, Q6ZMN7 (Q6ZMN7 389-498): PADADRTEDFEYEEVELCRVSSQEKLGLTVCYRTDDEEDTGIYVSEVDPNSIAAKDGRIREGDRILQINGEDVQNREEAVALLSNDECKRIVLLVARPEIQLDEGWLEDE
Sequence of CARD14, Q9BXL6 (Q9BXL6 558-663): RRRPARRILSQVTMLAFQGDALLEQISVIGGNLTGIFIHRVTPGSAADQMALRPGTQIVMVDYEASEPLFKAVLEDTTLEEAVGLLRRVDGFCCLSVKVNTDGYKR
Sequence of MAGI1_5, Q96QZ7 (Q96QZ7 986-1098): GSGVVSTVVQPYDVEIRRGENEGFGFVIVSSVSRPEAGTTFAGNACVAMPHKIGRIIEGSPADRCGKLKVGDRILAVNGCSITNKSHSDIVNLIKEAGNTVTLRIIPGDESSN
Sequence of Inadl_7, Q8NI35 (Q8NI35 1219-1332): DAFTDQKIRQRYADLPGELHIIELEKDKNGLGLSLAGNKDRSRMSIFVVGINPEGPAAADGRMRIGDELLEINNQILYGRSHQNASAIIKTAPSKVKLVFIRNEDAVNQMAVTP
Sequence of NHERF2_1, Q15599 (Q15599 9-91): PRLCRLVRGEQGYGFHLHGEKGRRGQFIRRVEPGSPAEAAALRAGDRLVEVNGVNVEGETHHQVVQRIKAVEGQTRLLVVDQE
Sequence of PARD3B_2, Q8TEW8 (Q8TEW8 376-471): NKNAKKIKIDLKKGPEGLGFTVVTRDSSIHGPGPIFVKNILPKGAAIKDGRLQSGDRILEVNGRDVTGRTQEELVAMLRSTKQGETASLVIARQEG
Sequence of SCRIB_4, Q14160 (Q14160 1095-1204): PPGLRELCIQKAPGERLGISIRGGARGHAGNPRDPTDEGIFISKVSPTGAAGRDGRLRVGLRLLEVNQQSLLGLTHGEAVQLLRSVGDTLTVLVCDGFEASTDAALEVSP
Sequence of MAGI3_3, Q5TCQ9 (Q5TCQ9 572-655): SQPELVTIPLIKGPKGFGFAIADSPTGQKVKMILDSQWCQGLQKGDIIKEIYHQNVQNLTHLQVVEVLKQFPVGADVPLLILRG
Sequence of MAGI3_6, Q5TCQ9 (Q5TCQ9 1014-1103): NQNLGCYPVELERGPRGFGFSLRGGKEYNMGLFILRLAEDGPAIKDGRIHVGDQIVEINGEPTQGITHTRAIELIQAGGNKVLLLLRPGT
Sequence of PTPN13_2, Q12923 (Q12923 1363-1462): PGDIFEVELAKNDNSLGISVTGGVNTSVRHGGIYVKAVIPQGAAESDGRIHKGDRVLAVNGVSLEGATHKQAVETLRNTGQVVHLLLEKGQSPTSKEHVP

Binder: RTRQRNETQV [HPV51-E6, P26554]
- pKd [1]: below the threshold
- pKd [2]: below the threshold
- pKd [3]: 5.06
- pKd [4]: below the threshold
- pKd [5]: below the threshold
- pKd [6]: below the threshold
- pKd [7]: below the threshold
- pKd [8]: below the threshold
- pKd [9]: below the threshold
- pKd [10]: below the threshold
- pKd [11]: 4.39
- pKd [12]: below the threshold
- pKd [13]: 4.34
- pKd [14]: below the threshold
- pKd [15]: below the threshold
- pKd [16]: below the threshold
- pKd [17]: 4.27
- pKd [18]: below the threshold
- pKd [19]: below the threshold
- pKd [20]: below the threshold
- pKd [21]: below the threshold
- pKd [22]: below the threshold
- pKd [23]: below the threshold
- pKd [24]: below the threshold
- pKd [25]: below the threshold
- pKd [26]: below the threshold
